# Measurements: article PMC4938799, “LD Motif Recognition by Talin: Structure of the Talin-DLC1 Complex” (Structure(London, England:1993), 2016)
# B1: GST-R8: GST-tagged talin R8, amino acids 1,453–1,580 (protein)
# chain: NSQAGQQGLVEPTQFARANQAIQMACQSLGEPGCTQAQVLSAATIVAKHTSALCNSCRLASARTANPTAKRQFVQSAKEVANSTANLVKTIKALDGDFTEENRAQCRAATAPLLEAVDNLSAFASNPE
# modifications: left off: GST, end not stated, kept
# Test system: endogenous RIAM
# Experiment: GST pull-down of endogenous RIAM in A549 cells
# Format: cell-based, human
# Settings: A549 cell extracts, anti-RIAM immunoblot
# Description: However, as talin R8 interacts with RIAM ([Goult et al., 2013b]) and paxillin (shown here) in addition to DLC1, we used several approaches to evaluate whether binding of talin R8 to endogenous RIAM or paxillin might have contributed to the observed results. For RIAM, the level of expression in the cell lines used here varied from very low to undetectable. To detect RIAM protein in any of the cell extracts, we had to use an anti-RIAM immunoprecipitation step followed by anti-RIAM immunoblotting. Using these conditions, endogenous RIAM was detected in A549 and H358 cells, but not in 293T cells (Figure S5A).
# Figure S5, related to figure 6. […]
# form a detectable complex with GST-talin R8.
# (A) The expression of endogenous RIAM in cell lines. Cell extracts were subjected to immunoprecipitation followed by immunoblotting with anti-RIAM antibody.
# (B) A complex between GST-talin R8 and endogenous RIAM is undetectable in A549 cells.
# A549 cells were co-transfected with GFP-DLC1 and the GST constructs indicated. Cell extracts were subject to a glutathione bead pull down assay followed by immunoblotting with anti-GST and anti-RIAM antibodies on the same membrane (left). No complex between GST-talin R8 and RIAM could be detected. Under the same conditions, wild-type GST-R8 pulled-down the co-transfected GFP-DLC1; the immunoblot with anti-GST and anti-DLC1 on the same membrane is shown (right). […]
molecule,measurement,setting,value
B1,complex with endogenous RIAM,,did not detect a GST-R8 complex
same,complex with endogenous RIAM,listed as GST-talin R8,undetectable
